From the supplement of paper PMC11246515
± gives the standard deviation of the averaged measurements.

Assay: total protein half-life in vivo (active degradation + dilution); higher = more stable protein
[1] = E. coli NCM3722 delta-clpP delta-lon delta-hslV, growth: N-lim chemostat, doubling time 6 h
[2] = E. coli NCM3722 delta-clpP, growth: N-lim chemostat, doubling time 6 h
[3] = E. coli NCM3722 delta-hslV, growth: N-lim chemostat, doubling time 6 h
[4] = E. coli NCM3722 delta-smpB, growth: N-lim chemostat, doubling time 6 h
[5] = wild type E. coli NCM3722, growth: C-lim chemostat, doubling time 3 h
[6] = wild type E. coli NCM3722, growth: C-lim chemostat, doubling time 6 h
[7] = wild type E. coli NCM3722, growth: C-lim chemostat, doubling time 12 h
[8] = wild type E. coli NCM3722, growth: N-lim chemostat, doubling time 6 h
[9] = wild type E. coli NCM3722, growth: N-lim chemostat, doubling time 12 h
[10] = wild type E. coli NCM3722, growth: P-lim chemostat, doubling time 6 h
[11] = wild type E. coli NCM3722, growth: P-lim chemostat, doubling time 12 h
[12] = E. coli NCM3722 delta-lon, growth: N-lim chemostat, doubling time 6 h

Sequence | total protein half-life in vivo [1] [h] | total protein half-life in vivo [2] [h] | total protein half-life in vivo [3] [h] | total protein half-life in vivo [4] [h] | total protein half-life in vivo [5] [h] | total protein half-life in vivo [6] [h] | total protein half-life in vivo [7] [h] | total protein half-life in vivo [8] [h] | total protein half-life in vivo [9] [h] | total protein half-life in vivo [10] [h] | total protein half-life in vivo [11] [h] | total protein half-life in vivo [12] [h]
MQILADLLNTIPAIDSTAMSRAQRHIDGLLKPVGSLGKLEVLAIQLAGMPGLNGIPHVGKKAVLVMCADHGVWEEGVAISPKEVTAIQAENMTRGTTGVCVLAEQAGANVHVIDVGIDTAEPIPGLINMRVARGSGNIASAPAMSRRQAEKLLLDVICYTQELAKNGVTLFGVGELGMANTTPAAAIVSTITGRDPEEVVGIGANLPTDKLANKIDVVRRAITLNQPNPQDGVDVLAKVGGFDLVGIAGVMLGAASCGLPVLLDGFLSYAAALAACQMSPAIKPYLIPSHLSAEKGARIALSHLGLEPYLNMEMRLGEGSGAALAMPIIEAACAIYNNMGELAASNIVLPGNTTSDLNS | 4.974 ± 0.0055 | 4.84 ± 1.1 | 3.39 ± 0.091 | 3.17 ± 0.12 | 3 ± 0.2 | 4.63 ± 0.68 | 8.1 ± 0.064 | 3.27 ± 0.16 | 5.18 ± 0.075 | 4.994 ± 0.018 | 9.91 ± 0.96 | 
MQILFNDQAMQCAAGQTVHELLEQLDQRQAGAALAINQQIVPREQWAQHIVQDGDQILLFQVIAGG | 2.75 |  |  |  |  |  | 4.47 | 1.3 |  | 3.24 | 5.24 ± 0.77 | 
MQILLANPRGFCAGVDRAISIVENALAIYGAPIYVRHEVVHNRYVVDSLRERGAIFIEQISEVPDGAILIFSAHGVSQAVRNEAKSRDLTVFDATCPLVTKVHMEVARASRRGEESILIGHAGHPEVEGTMGQYSNPEGGMYLVESPDDVWKLTVKNEEKLSFMTQTTLSVDDTSDVIDALRKRFPKIVGPRKDDICYATTNRQEAVRALAEQAEVVLVVGSKNSSNSNRLAELAQRMGKRAFLIDDAKDIQEEWVKEVKCVGVTAGASAPDILVQNVVARLQQLGGGEAIPLEGREENIVFEVPKELRVDIREVD | 5.14 ± 0.44 | 3.68 ± 0.91 | 2.78 ± 0.23 | 2.44 ± 0.24 | 2.5 ± 0.044 | 3.72 ± 0.34 | 5.14 ± 0.29 | 2.69 ± 0.3 | 3.69 ± 0.062 | 2.89 ± 0.034 | 5.25 ± 0.3 | 3.1 ± 0.29
MQKEQLSALMDGETLDSELLNELAHNPEMQKTWESYHLIRDSMRGDTPEVLHFDISSRVMAAIEEEPVRQPATLIPEAQPAPHQWQKMPFWQKVRPWAAQLTQMGVAACVSLAVIVGVQHYNGQSETSQQPETPVFNTLPMMGKASPVSLGVPSEATANNGQQQQVQEQRRRINAMLQDYELQRRLHSEQLQFEQAQTQQAAVQVPGIQTLGTQSQ [P0AFX7] |  |  |  |  |  | 0.455 ± 0.09 | 0.469 | 0.895 ± 0.046 | 0.953 ± 0.18 | 0.801 | 1.03 ± 0.45 | 
MQKIVIVANGAPYGSESLFNSLRLAIALREQESNLDLRLFLMSDAVTAGLRGQKPGEGYNIQQMLEILTAQNVPVKLCKTCTDGRGISTLPLIDGVEIGTLVELAQWTLSADKVLTF [P0AB52] | 5.73 ± 0.71 | 5.32 ± 0.28 | 4.94 ± 1.6 | 4.81 ± 0.086 | 2.64 ± 0.25 | 6.4 ± 1.1 | 13.2 ± 0.93 | 5.55 ± 0.19 | 10.1 ± 0.94 | 5.43 | 12.5 ± 1.7 | 5.96 ± 0.57
MQKLKQQVFEANMELPRYGLVTFTWGNVSAIDRERGLVVIKPSGVAYETMKAADMVVVDMSGKVVEGEYRPSSDTATHLELYRRYPSLGGIVHTHSTHATAWAQAGLAIPALGTTHADYFFGDIPCTRGLSEEEVQGEYELNTGKVIIETLGNAEPLHTPGIVVYQHGPFAWGKDAHDAVHNAVVMEEVAKMAWIARGINPQLNHIDSFLMNKHFMRKHGPNAYYGQK | 4.02 ± 1.1 |  |  |  |  |  |  |  |  |  |  | 
MQKRAIYPGTFDPITNGHIDIVTRATQMFDHVILAIAASPSKKPMFTLEERVALAQQATAHLGNVEVVGFSDLMANFARNQHATVLIRGLRAVADFEYEMQLAHMNRHLMPELESVFLMPSKEWSFISSSLVKEVARHQGDVTHFLPENVHQALMAKLA [P0A6I6] | 4.49 | 5.11 ± 0.59 |  | 4.82 ± 1 |  | 6.01 ± 0.25 | 10.8 | 4.62 | 7.33 ± 0.35 | 6.14 ± 0.072 | 12.9 ± 1 | 5.58
MQKVVLATGNVGKVRELASLLSDFGLDIVAQTDLGVDSAEETGLTFIENAILKARHAAKVTALPAIADDSGLAVDVLGGAPGIYSARYSGEDATDQKNLQKLLETMKDVPDDQRQARFHCVLVYLRHAEDPTPLVCHGSWPGVITREPAGTGGFGYDPIFFVPSEGKTAAELTREEKSAISHRGQALKLLLDALRNG | 4.93 ± 0.34 | 4.228 ± 0.016 | 4.12 ± 0.13 | 3.951 ± 0.0058 | 3.16 ± 0.17 | 5.1 ± 0.19 | 8.51 ± 0.84 | 4 ± 0.17 | 6.87 ± 0.21 | 5.14 ± 0.35 | 10.7 ± 0.027 | 4.93 ± 0.076
MQKYISEARLLLALAIPVILAQIAQTAMGFVDTVMAGGYSATDMAAVAIGTSIWLPAILFGHGLLLALTPVIAQLNGSGRRERIAHQVRQGFWLAGFVSVLIMLVLWNAGYIIRSMENIDPALADKAVGYLRALLWGAPGYLFFQVARNQCEGLAKTKPGMVMGFIGLLVNIPVNYIFIYGHFGMPELGGVGCGVATAAVYWVMFLAMVSYIKRARSMRDIRNEKGTAKPDPAVMKRLIQLGLPIALALFFEVTLFAVVALLVSPLGIVDVAGHQIALNFSSLMFVLPMSLAAAVTIRVGYRLGQGSTLDAQTAARTGLMVGVCMATLTAIFTVSLREQIALLYNDNPEVVTLAAHLMLLAAVYQISDSIQVIGSGILRGYKDTRSIFYITFTAYWVLGLPSGYILALTDLVVEPMGPAGFWIGFIIGLTSAAIMMMLRMRFLQRLPSAIILQRASR | 5.68 ± 0.19 | 6.61 |  | 5.45 ± 0.68 | 3.6 |  | > 16 | 6.87 ± 0.42 | 12 ± 0.72 | 5.52 ± 0.6 | 12.7 ± 0.75 | 4.97 ± 0.54
MQLNKVLKGLMIALPVMAIAACSSNKNASNDGSEGMLGAGTGMDANGGNGNMSSEEQARLQMQQLQQNNIVYFDLDKYDIRSDFAQMLDAHANFLRSNPSYKVTVEGHADERGTPEYNISLGERRANAVKMYLQGKGVSADQISIVSYGKEKPAVLGHDEAAYSKNRRAVLVY [P0A912] | 6.43 ± 0.059 | 6.28 ± 0.35 | 6.46 ± 0.39 | 5.44 ± 0.29 | 3.09 ± 0.057 | 5.6 ± 0.32 | 10.7 ± 1.1 | 6.17 ± 0.19 | 12.6 ± 0.94 | 5.9 ± 0.72 | 11.3 ± 1.8 | 6.35 ± 0.55
MQLTSFTDYGLRALIYMASLPEGRMTSISEVTDVYGVSRNHMVKIINQLSRAGYVTAVRGKNGGIRLGKPASAIRIGDVVRELEPLSLVNCSSEFCHITPACRLKQALSKAVQSFLTELDNYTLADLVEENQPLYKLLLVE [P0AF63] | 7.13 ± 1.1 | 6.69 ± 0.15 | 5.44 ± 0.07 | 5.26 ± 0.17 | 2.93 ± 0.15 | 6.31 ± 1.1 | 8.91 ± 0.3 | 5.12 ± 0.58 | 10.2 ± 0.44 | 4.03 ± 0.2 | 6.22 ± 0.65 | 5.26 ± 0.19
MQNRLTIKDIARLSGVGKSTVSRVLNNESGVSQLTRERVEAVMNQHGFSPSRSARAMRGQSDKVVAIIVTRLDSLSENLAVQTMLPAFYEQGYDPIMMESQFSPQLVAEHLGVLKRRNIDGVVLFGFTGITEEMLAHWQSSLVLLARDAKGFASVCYDDEGAIKILMQRLYDQGHRNISYLGVPHSDVTTGKRRHEAYLAFCKAHKLHPVAALPGLAMKQGYENVAKVITPETTALLCATDTLALGASKYLQEQRIDTLQLASVGNTPLMKFLHPEIVTVDPGYAEAGRQAACQLIAQVTGRSEPQQIIIPATLS | 5.44 ± 0.36 | 5.57 | 5.41 ± 1 | 4.96 ± 0.47 | 2.888 ± 0.0064 | 5.6 ± 0.49 | 12.4 ± 2.4 | 5.0404 ± 0.0037 | 10.5 ± 1.1 | 4.72 ± 0.12 | 10.2 ± 1.8 | 5.53 ± 0.32
MQNTTHDNVILELTVRNHPGVMTHVCGLFARRAFNVEGILCLPIQDSDKSHIWLLVNDDQRLEQMISQIDKLEDVVKVQRNQSDPTMFNKIAVFFQ [P0ADF8] | 5.25 ± 2.1 | 1.6 ± 0.35 | 1.74 ± 0.22 | 1.62 ± 0.038 | 2.47 ± 0.37 | 3.63 ± 0.07 | 4.56 ± 0.67 | 1.447 ± 0.0047 | 2.29 ± 0.29 | 2.71 ± 0.66 | 5.91 ± 0.75 | 2.35
MQQLASFLSGTWQSGRGRSRLIHHAISGEALWEVTSEGLDMAAARQFAIEKGAPALRAMTFIERAAMLKAVAKHLLSEKERFYALSAQTGATRADSWVDIEGGIGTLFTYASLGSRELPDDTLWPEDELIPLSKEGGFAARHLLTSKSGVAVHINAFNFPCWGMLEKLAPTWLGGMPAIIKPATATAQLTQAMVKSIVDSGLVPEGAISLICGSAGDLLDHLDSQDVVTFTGSAATGQMLRVQPNIVAKSIPFTMEADSLNCCVLGEDVTPDQPEFALFIREVVREMTTKAGQKCTAIRRIIVPQALVNAVSDALVARLQKVVVGDPAQEGVKMGALVNAEQRADVQEKVNILLAAGCEIRLGGQADLSAAGAFFPPTLLYCPQPDETPAVHATEAFGPVATLMPAQNQRHALQLACAGGGSLAGTLVTADPQIARQFIADAARTHGRIQILNEESAKESTGHGSPLPQLVHGGPGRAGGGEELGGLRAVKHYMQRTAVQGSPTMLAAISKQWVRGAKVEEDRIHPFRKYFEELQPGDSLLTPRRTMTEADIVNFACLSGDHFYAHMDKIAAAESIFGERVVHGYFVLSAAAGLFVDAGVGPVIANYGLESLRFIEPVKPGDTIQVRLTCKRKTLKKQRSAEEKPTGVVEWAVEVFNQHQTPVALYSILTLVARQHGDFVD | 4.86 |  |  |  |  |  |  |  | 6.08 |  | 7.41 | 
